According to a protein production outcome set (Wang et al. 2014):

Test: label from the status in PepcDB records

Row | Sequence | protein production
1 | MKTEARILKECLAAAAPNCLHSILPPVVRDDQTRSMNKPMESYYHQFLEEFRLPLTNPVLVFSLVLFIILLAPIVSKRFNIPGTVGLILSGVLIGPHSLNLLEKSSAVELFSTIGLLYILLIAGLELDVNDFRKNRYKSALFGLLTFSIPIVLGYPVCRYLLNYPMSTSLLTASMFATHTLVAYPVVSRMGISKNRTVAITVAGTILSDTAVLILLAVIIGYSRGDINHEFWLHLVIALTLFSAIVFIVLPAIARWFFTKLENEKHAHYIFVLAALFFSAFLAKAAGLEPIVGAFAAGLALNPLIPGSSALMNRIEFIGNSLFIPFFLISVGMLVDLRIILSSPIALIIAALLTFVALAGKWLAALSTQKIFGYSAAHRRLIFGLSSSRAAATIAIALVGYRARILDLNILNAIIILILVTCIVSSLVTEKAAKEIVLEENDAAPEKEHAQGDADEQILLPIAENKPSERVLELAVMIREKRSLNPLTILTVVPNDHEAELNVKKAKKELAPTVDFAASFDTSLNIVATIDYNICSGISRAVKESQSNLIIFDWPSRQGFLGRMINDATESIVECTCKTTMICHLTRPLAIHRRIVVICPPFAEKEKGFGQWLRKMSRLSQELTIPLLFHCDRKSRLAIIETLKTSHSTSPVLYEVFKNFREWEDIASRKLHFREDDIVTFVCARRESISYKPFFDLVPEQLEKHVKDISKIMIYPEQFDSAIIEEEYADVVAPKSFPFGASTIRKIREEISGFMKKNQLQIRKKARGKTAATPKRFGFSRKEP | failed
2 | MNYVELLGYLAMLLVGLSFLMKDVIKLRFVNALGCICFSIYGILIGSFPVAALNGFVACTNIYFLINNNKD | failed
3 | MTINNDPMRDAIVDTAVELAAHTSWEAVRLYDIAARLAVSLDEIRLYFREKDELIDAWFDRADSRMLKEAESAGFLDLVASERIHHLIMIWLDALAVQRKVTRQMIMSKLEFGHIHIQIPAVMRVSRTVQWVREAAQRDATFMRRALEESTLTTIYLMTFFFWMRDESENSRHTRQFLKRHLTMAAWLGQKVYGKDPEKSTVPHKQQIPLQFD | not failed
4 | MDRIQEMTLFAALAGQTSFTGVARHVGLSTATVTRAVASLESRLGILLVVRTTRNMRLTKAGQRFAEDCRRLLADLSEAENAAAGVHALPAGTLTVTAPQMFGALHVTPVLTRFLSEYPAVDIRAILVDRVVSMLDEGVDVAVRIGALRDSSLTAIRVGSVRRMVCASPVYLTQHGTPRHPDDLQQHATISTSAPERPPHWAFRVDDQDYSVNVASRLSLTSFQASINAALQHWGLTQVPHYQIREHLHNGRLVCVLEDFEIAPEPVHVVYSEGRRGSSRVRSFVDFCVSALREDLQFEAAG | failed
5 | MGQFYCLHCDRYFSNVSVRDDHFKTKKHKKRVNMMMGQAPHSQLDADLAGGMGMPDNGPKLMSNLVFTELRKPETEDLPGMGQFNCLLCHRNFSNASVMDYHFKTKKHKKRVKKIERPAPHSQLDADLAGGMGMPDNGPKLMSA | not failed
6 | MSDLLDTVRGLAKKTDSKILMVVLDGVGGLPLTVNGDTELATARTPNLDALAQESQLGQLELVGAGITPGSGPGHLSLFGYDPLKYVVGRGALSAVGIGVKLNRGDVAVRGNFATLGAGRLILDRRAGRPSDEKNAEIVAKLRAAIPEIDGVAVEVYTESEHRFVVVFRAPEGQPLGANISDVDPQVTGVEPKTAIANDPSSEVTAGLINTFVARAEVALADEPQVNGVLFRGYSDVPHFPSFEDAYQLKAACIASYPMYKGLASLVGMDVLPVEGHEDALEGKVKALRENWAKYDFFYFHIKKTDSTGEDGDFAEKVHKIELFDELLPQLLELQPDVIAVVGDHSTPSKLKSHSWHPVPLLIRSNYGRRDPAQRYTEEEAARGTLGLRHGPDLMPLLMANALKLNKYGALEHHHHHH | not failed
7 | MESSPSGSEPPQKVVSKLQKVGWRATMIFNLGFAAYIFAIKREKDIDADEKKKVKKGSEARHKGVKKGAVNTEIEKKGAEETDKAKEAETAIPEKEETKLIPELDPLFEFTDATDQSMFQTVATEHVKVARKPIPEDEQKELFKWILEEKRKIEPKDRKEKKQIDEEKAILKQFIRAERIPKLLPDDSVDSSLRDWDKFFSK | failed
8 | MNMIEPAPVRKSVTVRTSPQQAFDVFVSGMGTWWIKGHSLTQSGQKTVVVEAVAGGRWYEIGNAGEECEWGRVIACDRPNRVLFDWQLNADFDYDPGLHTEVEVLFEANGEGGTTVILEHRHLEKYGVKAKEMRGIFDSENGWGGLLASYMEKAAA | failed
9 | MKYLYQQLLAFIGVIALIILIVGTSFTQLTKRTMQENNYEQLYGYAESALETRDFFINVAGVSDRDVLSYSFQLTERVLQKQDVQFVFINKDREVQYPPVDSTKKLDFSLIDKNWDQIMKGNRVYATENIDIYGARNTSSYVMLPVYASNQSSDKKVIIGSLVITQPAKNVDRSVQSVTQNLIKGFIFSGVIALLLSYLFATFQVKRINRMRKATKEITSGNFDIQLPVHDKDEFDDLAEDFNKMAASLKESQEEINRQEERRRQFMADASHEMRTPLTTINGLLEGLQYNAIPENQKENAIKLMQNETARLIRLVNENLDYEKIRTNQIQIVVKKFNGTEALENIVTQLTAKAEAAGNQLYLDTTEPIDVYADYDRFVQVVVNIVQNAIQFTENGEIHIALEKGYLETIVRISDTGIGMTEEQILNIWDRYYKVDPSRKNTKYGESGLGLPIVQQLVRLHKGKINVESELGKGTTFIISFPDVEITEN | not failed
10 | MEFRLLHISDLHMIPGQETKKAWVSALDSLSPDLVINTGDNLSDEKAVPDVLRALGPLMNRPGAFVFGTNDYWAPRPVNPFGYLFGKKREVSHIDLPWRAMRAAFIEHGWQDANQKRLEFQVGSVRLAISGVDDPHHDLDDYTEIAGAPNVDADLSIALLHAPEPRVLAQFEADGYQLSLSGHTHGGQLEHHHHHH | failed
11 | YVFTVELERGPSGLGMGLIDGMHTHLGAPGLYIQTLLPGSPAAADGRLSLGDRILEVNGSSLLGLGYLRAVDLIRHGGKKMRFLVAKSDVETAKKIH | not failed
12 | MRVFVTGASGWIGSAVVPELIRAGHQVVGLARSDASAEALTAAGAGVVRGTLDDLDVLRRAAADSDGVVHLAFKHDIAFSGDFKGAGEADRRAVEVIGEALAGSDRPFTIASGTPAIPGHVATEHDGHDADRAAAARGDAQHIRAVTAELTVSLSARGVRSSVVRLAPTNHGEGDNGFVPALIGIARGKGVSGYIGDGTNRWSAAHRLDSARLFRLALEKAPAGSTLHAVAEEGLPVRDLAEVVGRQLGLPVVSVPAAEAEAHFGWLAGPLAANRAASSVLTRELLGWEPVQPGLVEDLEQGHYFK | failed
13 | MLRHIVLLILLSSEVRGVCNRIPQGASGPRSPVDDNFKILIDGNPETYVPEHQYNVSLSCPINMKFVSFTLVVEAEDPSAAFGGQDMTGHFELLGVGDTRFSTSCENMVENTNTNAKIYIAVSWIAPRNPDSGCVLIKAGVVQHRDVWFLDDGFLTKRICPEEIDELNSLTPPLETCCACDEAKYEIVLERKWARNTHWKDFPSEDWRTRLGEVIGASHSHSYRYWAYGGRASKGMKELAEHGATRTLENEIRENTQNGEVRTIIKAPGIPYRPKTFGTTLANARLDPVHHQISLAAKIDPSPDWILGVAGLELCLSNCTWLERKSSDEPQVPPDVVRRITSSYPSDHRSPFYDDTGAPMKPLATLYLTRKKLYIRECEEVLVPQEGPLECAVHPWNEWTNCSTRCGQGYSHRQRSFKNPNLAANFNCDRRLEEFRQCQGTQCGAAEEELEGEEPGLGMENPPSSGSMAECQLTNWGEWSPCTKTCGRGSSTRTRDYYNPQARQRCLSVMRIPLEETRECIGSDCGGTIPDNGELDGFPEPDVFGETDHGGYMGKTTSWNSKQEHSSLGSGNQAWNRKPYNSWKDKSLSNPRDNAQESPNLPFDQIENPQRPAYNPSDNMGGYDKGFPPTNSYSNDKLVGNRPGYNDFNSDYNNKDAYNDYTTPSFTSRTPFGSRYPNQQETVEGNTNDINGNYNVVQDYCFEKPYASTLPCFAKPVVESNYWFYDHEDHECKIFTTDNCDQNRNRFRTLTACEGTCLQPQINMERSENDAMDLYGRRSYDQKQTRDHISKQEVDPMINQKIGPMTYRQQEVDPMEKPVKQVILENPCRRPGADTTHPDAVGMAAEQIKAFKSPKLEENKY | failed
14 | MAYGKAHLEAQLKRALAEEIQALEDPRLFLLTVEAVRLSKDGSVLSVYVEAFREEEGALRALSRAERRLVAALARRVRMRRLPRLEFLPWRASPA | not failed
